Reference: US20260139026A1 (Memorial Sloan Kettering, published 2026)

B1: 1022T8 TCR (TCR, V domains shown)
V domain 1: GDSVTQMEGPVTLSEEAFLTINCTYTATGYPSLFWYVQYPGEGLQLLLKATKADDKGSNKGFEATYRKETTSFHLEKGSVQVSDSAVYFCALTVGGSYIPTFGRGTSLIVHP
V domain 2: DTEVTQTPKHLVMGMTNKKSLKCEQHMGHRAMYWYKQKAKKPPELMFVYSYEKLSINESVPSRFSPECPNSSLLNLHLHALQPEDSALYLCASSQGGQGWRETQYFGPGTRLLVLE
B2: wildtype PIK3CA minimal peptide AHHGGWTTK (peptide)
peptide: AHHGGWTTK
notes: also called WT peptide

Key:
[1] = molecular target: P8 peptide … pulsed on HLA-A*03:01 cells (human, UniProt A*03:01); assay: cell-based or functional assay
[2] = molecular target: P2 peptide … pulsed on HLA-A*03:01 cells (human, UniProt A*03:01); assay: cell-based or functional assay
[3] = molecular target: P7 peptide … pulsed on HLA-A*03:01 cells (human, UniProt A*03:01); assay: cell-based or functional assay
[4] = molecular target: P4 peptide … pulsed on HLA-A*03:01 cells (human, UniProt A*03:01); assay: cell-based or functional assay
[5] = molecular target: P5 peptide … pulsed on HLA-A*03:01 cells (human, UniProt A*03:01); assay: cell-based or functional assay
[6] = molecular target: P3 peptide … pulsed on HLA-A*03:01 cells (human, UniProt A*03:01); assay: cell-based or functional assay
[7] = molecular target: P9 peptide … pulsed on HLA-A*03:01 cells (human, UniProt A*03:01); assay: cell-based or functional assay
[8] = molecular target: P6 peptide … pulsed on HLA-A*03:01 cells (human, UniProt A*03:01); assay: cell-based or functional assay
[9] = molecular target: T1, recombinant HLA-A*03:01 (human); assay: differential scanning fluorimetry of peptide/HLA-A*03:01, two technical replicates
T1 construct: MHC class I molecule used in differential scanning fluorimetry and crystallography. 'Recombinant' is printed only for the crystal structures; also called HLA-A*03:01 molecule
Excerpt: Experiments included two technical replicates for each group. […] It measured the change in fluorescent signal of a dye that binds preferentially to hydrophobic resides that are exposed as an unstable protein unfolds.

Binder | loss in function against the unmodified mutated 9-mer [1] [% loss in function] | loss in function against the unmodified mutated 9-mer [2] [% loss in function] | loss in function against the unmodified mutated 9-mer [3] [% loss in function] | loss in function against the unmodified mutated 9-mer [4] [% loss in function] | loss in function against the unmodified mutated 9-mer [5] [% loss in function] | loss in function against the unmodified mutated 9-mer [6] [% loss in function] | loss in function against the unmodified mutated 9-mer [7] [% loss in function] | loss in function against the unmodified mutated 9-mer [8] [% loss in function] | melting temperature [9] [degrees]
B1 | > 50 | > 50 | > 50 | > 50 | > 50 | > 50 | > 50 | > 50 | –
B2 | – | – | – | – | – | – | – | – | 36
